Results as given in paper PMC1904107.

Biological target: caldesmon(302–564) (UniProt Q05682)
Experiment: fluorescence cross-correlation spectroscopy

In the case of “CaM(1–149) (from UniProt P0DP23 1-149) (natural protein)”, the Kd is reported as 500 nM.
